Assay results as given in IntAct's records for PubMed 17005671.

B1: Tyrosine-protein kinase-interacting protein (Saimiriine herpesvirus 2 (strain 488) (SaHV-2)), P22575 (parent)
chain: MANEGEEIELTEFPETEKERKDEEKLSSCSEETTNTSSSSGSDHVPVPIEVNVIIQNSSRTEDELQNSKEIELTGFQGKLSSCSEETTAPSSSYSSKQASVFIEENGDNETSTYRPQNVLTNLNSLYTTFEDARAQGKGMVRHKSEDLQSFLEKYPPDFRKPKRDLSATWDPGMPTPPLPPRPANLGERQASTVRLHVKESNCKQPRERKANERNIVKDLKRLENKINVIICLVVVILAVLLLVTVLSILHIGMKS

How the values were obtained:
lck_human LCK, P06239 = variants of: B1; conditions: with lck_human LCK
lck_human LCK, P06239, sequence (P06239 whole entry, looked up): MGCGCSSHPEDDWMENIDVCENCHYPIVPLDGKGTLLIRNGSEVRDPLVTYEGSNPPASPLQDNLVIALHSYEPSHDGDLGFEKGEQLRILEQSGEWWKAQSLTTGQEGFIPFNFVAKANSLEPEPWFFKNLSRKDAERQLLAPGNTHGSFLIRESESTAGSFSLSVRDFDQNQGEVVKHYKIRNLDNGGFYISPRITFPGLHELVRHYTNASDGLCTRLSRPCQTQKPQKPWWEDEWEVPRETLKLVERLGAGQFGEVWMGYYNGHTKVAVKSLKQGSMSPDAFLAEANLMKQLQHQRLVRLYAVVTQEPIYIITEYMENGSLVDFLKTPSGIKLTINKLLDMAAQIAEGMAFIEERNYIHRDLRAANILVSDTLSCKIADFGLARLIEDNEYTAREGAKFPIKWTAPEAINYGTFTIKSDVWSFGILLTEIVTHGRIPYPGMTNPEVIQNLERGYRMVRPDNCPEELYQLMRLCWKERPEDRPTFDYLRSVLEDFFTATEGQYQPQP

cd4_human CD4, P01730 = variants of: B1; conditions: with cd4_human CD4, P01730

Variant	effect of a mutation on the interaction (lck_human LCK, P06239)	effect of a mutation on the interaction (cd4_human CD4, P01730)
P177A	decreasing interaction	–
P183A	decreasing interaction	decreasing interaction
P178A	decreasing interaction	decreasing interaction
P180A	decreasing interaction	decreasing interaction
P175A	decreasing interaction	decreasing interaction
